Consider 138 substances from the supplement of paper PMC12042874.

± gives the uncertainty stated by the source.

The nature of the first series: amyloid nucleation score (Sup35N fusion, yeast selection) (log enrichment); library NNK2; higher = more nucleation; inactive = no reads after selection. Put shortly: (§1)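 Peptides of 20 random codons, each fused to Sup35N, were expressed in psi-negative yeast. Cells were induced with 100 μM copper sulfate for 24 hours and grown 7 days at 30°C on medium lacking adenine and uracil, and plasmid inserts before and after selection were Illumina-sequenced. Nucleation scores are DiMSum log enrichments of output over input reads, centred on the mode score of non-aggregating sequences, and sequences under 100 input reads were excluded.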
As to YLTLEMLAVDE, the amyloid nucleation score is -0.52 ± 1.1. Regarding YLVRMRYGAM, the amyloid nucleation score is 0.763 ± 0.43. Still for that read-out and setting: then YMALCLTAL, with 0.367 ± 0.47; and YMDSKSNLARTFVRVCGLLG, with 0.097 ± 1.1; and YMFMIRSGFV, with -0.376 ± 0.37. The same measure, in the same setting: in the case of YMFRDQVWYMTYKDYGHGIR it was -0.249 ± 1.1; in that of YMHSICLFIVDNKIDYLRGY, 0.541 ± 0.74. In turn, YMLRIRTMSVPVFPVGFLGL showed an amyloid nucleation score of -0.275 ± 0.56. The same measure, in the same setting: then YMRMKW, with 3.46 ± 0.079. The same measure, in the same setting: then YMTTNRKPLDFYQHVYLMKV, with “inactive”. The same measure, in the same setting: in the case of YNAVA it was “inactive”.

In the case of YNAWSSWYLGVLRPIGCCNG, the amyloid nucleation score is 9.703 ± 0.046. On the same count and under the same terms, in the case of YNCGTQRYLVFNNESNSFFS it was 3.18 ± 0.071; in that of YNDVCLCNGSLGWKLVLE, -0.177 ± 1. The same measure, in the same setting: in the case of YNKNSKFLGRFDCSLFI it was -1.04 ± 1.1.

Substance YNLCSSCNIQWWCSRMHQQK showed an amyloid nucleation score of 8.858 ± 0.055. Same read-out and setting: in the case of YNPCLSRSHSKCLRTWLECR it was 1.26 ± 0.44. Substance YNPVPFL registered an amyloid nucleation score of -0.788 ± 0.39. Still for that read-out and setting: in the case of YNSLVRMRTRYIGR it was 0.025 ± 0.46.

Substance YNVGALASVSRFRDGFGLS showed an amyloid nucleation score of 1.57 ± 0.1. The same measure, in the same setting: then YNVTTMYNYYLICISLATMY, with 7.09 ± 0.08; and YNWGNASSSGVKPEPGGQPT, with 0.696 ± 0.27; and YNYLAMPQMLMEYFISVVVS, with 2.05 ± 0.089.

Consider YPDIYGFEKRIDSPSNLGML, for which the amyloid nucleation score came out at 0.433 ± 0.6. On the same count and under the same terms, then YPIIVFAVLCFEWETYWCSL, with 0.015 ± 0.76. Substance YPIVLRA had an amyloid nucleation score of 1.01 ± 0.48. On the same count and under the same terms, then YPVIPGISRLLNTQRIVFLG, with -0.226 ± 0.21; and YPWRYIFLSDPAGLIQTCRF, with -1.34 ± 0.54.

With YQARVTMCIPAWTMSECSQC, the amyloid nucleation score was -1.01 ± 0.76. On the same count and under the same terms, in the case of YQLNWVKAASCSISLYFTFL it was 3.87 ± 0.082.

Turning to YQRNSFNDHADYPYHELVKS, the amyloid nucleation score is 0.222 ± 0.64. The same measure, in the same setting: in the case of YQYDNPVLDKT it was -0.178 ± 0.55. On the same count and under the same terms, then YQYRDLLVIVRSTMKSNVSV, with 1.85 ± 0.1; and YRAMESNRKRTPVKPVRCVV, with 2.85 ± 0.11.

For the substance YRASHCQSFQ, the amyloid nucleation score is -1.2 ± 1.1. Same read-out and setting: in the case of YRCIMVATMWGPRVELGR it was 0.522 ± 0.39; in that of YRFHSTKRCINSGDNC, -0.14 ± 1.

For YRFMTLVQHSYRCICLRLNA, the amyloid nucleation score is -0.183 ± 0.33. Same read-out and setting: then YRHYIGRTSFTLY, with -0.232 ± 1.1; and YRLGLCGTFHINCVLINRDG, with 5.2 ± 0.056; and YRLIYFVVLFEFLSVNR, with -0.089 ± 0.79. YRLPRLRMLTLFLCFTNVGK: the amyloid nucleation score was 1.37 ± 0.2. Still for that read-out and setting: then YRPMEGRLKWSMTVLIVSLY, with 0.497 ± 0.46. Same read-out and setting: in the case of YRSFSLCMCFYLYRSDDTLC it was -1.69 ± 1.1; in that of YRSVVDA, 0.077 ± 0.54. Same read-out and setting: then YRVVM, with 1.22 ± 0.69; and YSARRSGNFPVVRLMMNDLT, with -0.153 ± 0.65.

With YSCRIDF, the amyloid nucleation score worked out at 0.8 ± 0.54. The substance YSDISQTRSASAIALGECRG returned an amyloid nucleation score of -0.879 ± 0.64. YSDSSSREMEQSGL came in with an amyloid nucleation score of -0.199 ± 0.63. For the substance YSELIVTVIYKSTSSVRISC, the amyloid nucleation score was -0.285 ± 0.33. On the same count and under the same terms, then YSFSRTYVLIIDGVS, with 1.27 ± 0.18. Still for that read-out and setting: then YSGDNVNVVKQRPSCFLISR, with -0.24 ± 0.74; and YSGFIMWYLFDDTAQIP, with -0.781 ± 1.1. Still for that read-out and setting: in the case of YSGVSTTSFISDKPYRSRRR it was -1.95 ± 1; in that of YSIVNTNAGMTTRAWVTPTW, 1.38 ± 0.21. With YSKTFTRRSWAHYTCHSVRL, the amyloid nucleation score was found to be 0.12 ± 0.41. On the same count and under the same terms, then YSLLILAPDFLNRHSSLGCI, with -0.226 ± 1.1; and YSMLQF, with “inactive”.

The substance YSQFITGFGNNRHLTLSLAG showed an amyloid nucleation score of 0.389 ± 0.5. For the substance YSRGGKMVAARGCGSAEPDA, the amyloid nucleation score is -0.64 ± 0.76. In turn, YSRKYSSAKVSMGDVCHNYM gave an amyloid nucleation score of -1.19 ± 0.76. On the same count and under the same terms, in the case of YSSDYILSFNVNNTMVVSFE it was 5.59 ± 0.078; in that of YSSKFSYGMMCTRWDIVQYK, -0.451 ± 0.76.

In turn, YSVQRCGYQDSKNNDVFLA had an amyloid nucleation score of -0.043 ± 0.5. On the same count and under the same terms, then YTDIHESL, with “inactive”. Same read-out and setting: in the case of YTFWNVLC it was 3.59 ± 0.084; in that of YTGRSDVNSVLRV, 0.183 ± 1; in that of YTGYGTWNLNIRNACNRVSW, “inactive”. Still for that read-out and setting: then YTKFANSHFIGLNRSCWSNE, with -0.238 ± 0.8. The substance YTLCTMKLREWNRTSTWPSL yielded an amyloid nucleation score of -0.003 ± 0.39. Still for that read-out and setting: then YTSSCILGRTFPVLKCNIDY, with -1.33 ± 0.76; and YTSWDMYIEFIMSLQMYSVG, with -0.729 ± 1.1; and YTWSSYD, with -1.14 ± 0.36. The same measure, in the same setting: in the case of YTWVYPF it was -1.01 ± 0.33. Still for that read-out and setting: then YVAVYSCLSRGCTLS, with 9.186 ± 0.077; and YVDAEARLFCGLLGLVFGDL, with 5.47 ± 0.097; and YVGSTLAFNNKIGGDYNMKS, with -0.54 ± 1.1. Substance YVIVVGWPR returned an amyloid nucleation score of 9.408 ± 0.073. Still for that read-out and setting: in the case of YVLKIGSY it was -0.617 ± 0.44; in that of YVLSCDPLVRYQGLEDRQQS, 0.31 ± 0.62. In the case of YVMFRC, the amyloid nucleation score was determined as 1.31 ± 0.32. With YVMNRCNR, the amyloid nucleation score is -0.019 ± 0.54. Same read-out and setting: in the case of YVMREDLGPGSQADPTSGRS it was 0.912 ± 0.27; in that of YVMSVRSAIRPIGSCVKKEY, 0.101 ± 0.76; in that of YVNRVSCKVASRNCHHNGKS, -0.235 ± 1.1.

As to YVPDVLTMYYGHTFTFDCGR, the amyloid nucleation score entry is “inactive”. Still for that read-out and setting: then YVPYLLTLCCRCSSLGFR, with -1.08 ± 1.1.

Consider YVRFEVLRWLLYRYTMVSQD, for which the amyloid nucleation score came to 0.661 ± 0.49. YVSSNWRNFRSVSQWWMLHV: the amyloid nucleation score was 1.57 ± 0.1. The same measure, in the same setting: then YVTELIDCPGWTRRM, with -0.006 ± 0.38. Still for that read-out and setting: in the case of YVTPSNLARNKIQRFMASLI it was 0.436 ± 0.8; in that of YVVKIREIMVCSLVLDLRQR, 2.57 ± 0.069; in that of YVVTYLRRRTLLAGSCISNY, 0.164 ± 0.8. The same measure, in the same setting: then YVYKCLQSQFFNALVTMISL, with “inactive”; and YWCLA, with -0.737 ± 0.45. As to YWELQSHMGRFNSSCHLRWV, the amyloid nucleation score is -1.7 ± 0.76. For YWFHDCMRCCGNKILLLPDI, the amyloid nucleation score is -0.712 ± 1.1. The same measure, in the same setting: then YWGNYLRSFIYVVTSWSHVF, with “inactive”. On to YWLPRCKLVFV, for which the amyloid nucleation score worked out at 0.017 ± 0.25. The same measure, in the same setting: in the case of YWNEP it was 0.15 ± 0.37; in that of YWQYCVDANFKQLMQRGKVF, 0.728 ± 0.62; in that of YWVSCHVALGMALKSVLVPC, 0.009 ± 0.76.

As for YWWGLENFTYCEDDAVSHKS, the amyloid nucleation score was 0.294 ± 0.8. In turn, YYCRCYSGVLVTRAYQGNPE had an amyloid nucleation score of -0.168 ± 1.1.

Substance YYEYQVIYSVCSMRI showed an amyloid nucleation score of -0.31 ± 1. In the case of YYGILEVG, the amyloid nucleation score entry is “inactive”. Same read-out and setting: in the case of YYGVKSAM it was 0.074 ± 0.49; in that of YYISKKSMMMDEVRCWMTWF, -0.524 ± 0.27. Regarding YYLSNSWVLYFCFGIFVTSQ, the amyloid nucleation score stood at 1.88 ± 0.094. Same read-out and setting: then YYNKNLFCLFSVLEYKTTFL, with 4.09 ± 0.056; and YYQGRPWSSVLSFYCFHSYS, with “inactive”. Same read-out and setting: in the case of YYRIWYRVLIPSP it was -0.43 ± 0.29; in that of YYSAHAKSAGLM, 1.2 ± 0.48. The same measure, in the same setting: then YYTWDFWDIFRGWYRRDGIC, with “inactive”; and YYYDYVCLLWDLEEVSRHAL, with -0.442 ± 1.

The nature of another series: amyloid nucleation score (Sup35N fusion, yeast selection) (log enrichment); library NNK1; higher = more nucleation; inactive = no reads after selection. Put shortly: as §1
On to AAPLNMCLANTGFAQFLTSI, for which the amyloid nucleation score was -0.618 ± 1.2. Still for that read-out and setting: in the case of AAVLGFCSWNLRRRIMEF it was -0.864 ± 1.4; in that of ACCYVDLKIKFNVLPAVNIK, “inactive”; in that of ACDLNIIWADNSDYLIYVIS, 0.341 ± 0.36. Still for that read-out and setting: then ACFPLQVKDCYKCLGHLRAV, with 0.315 ± 0.29. The substance ACRGPNSHRFTGILHIFFLE showed an amyloid nucleation score of 0.705 ± 0.67. Still for that read-out and setting: then ACSGISILTCIIYRRQYISS, with -1 ± 0.91; and ADLLVVGVPSFNFWSSKVFV, with “inactive”; and ADRRLW, with -0.04 ± 0.32. The same measure, in the same setting: then AFDWSMSAKDQINEQTLNSV, with 0.617 ± 0.28; and AFGLMNCDRLSLTSNINTGG, with -0.4 ± 0.41. The same measure, in the same setting: then AFKWTSCYIFPLNWRKLFN, with -0.336 ± 0.34. Regarding AFSLR, the amyloid nucleation score is -0.437 ± 0.57. Still for that read-out and setting: in the case of AFVVYMNFFHCLESNIVEWH it was 5.61 ± 0.073. Same read-out and setting: then AFYIRIGVHFPQ, with -0.525 ± 1.1; and AFYNCYSGNYFNYIFIYRCT, with 7.283 ± 0.053.

AGAVCWACDR registered an amyloid nucleation score of -1.4 ± 0.77. The same measure, in the same setting: in the case of AGAWIVDVTGKSMERYVGNK it was 0.133 ± 0.61. Still for that read-out and setting: in the case of AGFSSDFASVPHPLGYGWLT it was -0.662 ± 1.2; in that of AGGRFCLLKFLTRFASCRGE, 2.44 ± 0.24. The same measure, in the same setting: then AGIIVWN, with -0.087 ± 0.31; and AGLRIYVVSFILTYGKRFSS, with 0.12 ± 0.4.
